Experimental data as given in the supplement of paper PMC12855868.

B1: library; numbered along this chain (parent)
chain: MAAAGGARLLRAASAVLGGPAGRWLHHAGSRAGSSGLLRNRGPGGSAEASRSLSVSARARSSSEDKITVHFINRDGETLTTKGKVGDSLLDVVVENNLDIDGFGACEGTLACSTCHLIFEDHIYEKLDAITDEENDMLDLAYGLTDRSRLGCQICLTKSMDNMTVRVPETVADARQSIDVGKTS

Variants of: B1
Assay: scaled log2 fold change in cell abundance, elesclomol vs control (0 = silent mean, 1 = nonsense mean) (scaled log2 ratio); higher = higher viability under elesclomol (loss of FDX1 cuproptosis function)
Details: glucose 10 mM
[1] = with ABC1 FDX1 KO, elesclomol 5 nM, 14 days
[2] = with HEK293T FDX1 KO, elesclomol 40 nM, 11 days
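Also: variant abundance is its share of total variant reads in each endpoint sample, from next-generation sequencing of the integrated ORF PCR-amplified out of genomic DNA.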

| Variant | scaled log2 fold change [1] | scaled log2 fold change [2] |
| --- | --- | --- |
| MAAAGGARLLRAASAVLGGPAGRWLHHAGSRAGSSGLLRNRGPGGSAEASRSLSVSARARSSSEDKITVHFINRDGETLTTKGKVGDSLLDVVVENNLGIDGFGACEGTLACSTCHLIFEDHIYEKLDAITDEENDMLDLAYGLTDRSRLGCQICLTKSMDNMTVRVPETVADARQSIDVGKTS | -1 | -0.777 |
| MAAAGGARLLRAASAVLGGPAGRWLHHAGSRAGSSGLLRNRGPGGSAEASRSLSVSARARSSSEDKITVHFINRDGETLTTKGKVGDSLLDVVVENNLMIDGFGACEGTLACSTCHLIFEDHIYEKLDAITDEENDMLDLAYGLTDRSRLGCQICLTKSMDNMTVRVPETVADARQSIDVGKTS | -0.0783 | 0.944 |
| MAAAGGARLLRAASAVLGGPAGRWLHHAGSRAGSSGLLRNRGPGGSAEASRSLSVSARARSSSEDKITVHFINRDGETLTTKGKVGDSLLDVVVENNLEIDGFGACEGTLACSTCHLIFEDHIYEKLDAITDEENDMLDLAYGLTDRSRLGCQICLTKSMDNMTVRVPETVADARQSIDVGKTS | 0.144 | 0.199 |
| MAAAGGARLLRAASAVLGGPAGRWLHHAGSRAGSSGLLRNRGPGGSAEASRSLSVSARARSSSEDKITVHFINRDGETLTTKGKVGDSLLDVVVENNLCIDGFGACEGTLACSTCHLIFEDHIYEKLDAITDEENDMLDLAYGLTDRSRLGCQICLTKSMDNMTVRVPETVADARQSIDVGKTS | 0.108 | 0.138 |
| MAAAGGARLLRAASAVLGGPAGRWLHHAGSRAGSSGLLRNRGPGGSAEASRSLSVSARARSSSEDKITVHFINRDGETLTTKGKVGDSLLDVVVENNLPIDGFGACEGTLACSTCHLIFEDHIYEKLDAITDEENDMLDLAYGLTDRSRLGCQICLTKSMDNMTVRVPETVADARQSIDVGKTS | 0.167 | -0.37 |
| MAAAGGARLLRAASAVLGGPAGRWLHHAGSRAGSSGLLRNRGPGGSAEASRSLSVSARARSSSEDKITVHFINRDGETLTTKGKVGDSLLDVVVENNLIIDGFGACEGTLACSTCHLIFEDHIYEKLDAITDEENDMLDLAYGLTDRSRLGCQICLTKSMDNMTVRVPETVADARQSIDVGKTS | 0.14 | -0.0831 |
| MAAAGGARLLRAASAVLGGPAGRWLHHAGSRAGSSGLLRNRGPGGSAEASRSLSVSARARSSSEDKITVHFINRDGETLTTKGKVGDSLLDVVVENNLRIDGFGACEGTLACSTCHLIFEDHIYEKLDAITDEENDMLDLAYGLTDRSRLGCQICLTKSMDNMTVRVPETVADARQSIDVGKTS | -0.084 | 0.945 |
| MAAAGGARLLRAASAVLGGPAGRWLHHAGSRAGSSGLLRNRGPGGSAEASRSLSVSARARSSSEDKITVHFINRDGETLTTKGKVGDSLLDVVVENNLKIDGFGACEGTLACSTCHLIFEDHIYEKLDAITDEENDMLDLAYGLTDRSRLGCQICLTKSMDNMTVRVPETVADARQSIDVGKTS | 0.114 | -0.24 |
| MAAAGGARLLRAASAVLGGPAGRWLHHAGSRAGSSGLLRNRGPGGSAEASRSLSVSARARSSSEDKITVHFINRDGETLTTKGKVGDSLLDVVVENNLTIDGFGACEGTLACSTCHLIFEDHIYEKLDAITDEENDMLDLAYGLTDRSRLGCQICLTKSMDNMTVRVPETVADARQSIDVGKTS | 0.182 | -0.092 |
| MAAAGGARLLRAASAVLGGPAGRWLHHAGSRAGSSGLLRNRGPGGSAEASRSLSVSARARSSSEDKITVHFINRDGETLTTKGKVGDSLLDVVVENNLSIDGFGACEGTLACSTCHLIFEDHIYEKLDAITDEENDMLDLAYGLTDRSRLGCQICLTKSMDNMTVRVPETVADARQSIDVGKTS | -0.273 | -0.316 |
| MAAAGGARLLRAASAVLGGPAGRWLHHAGSRAGSSGLLRNRGPGGSAEASRSLSVSARARSSSEDKITVHFINRDGETLTTKGKVGDSLLDVVVENNLNIDGFGACEGTLACSTCHLIFEDHIYEKLDAITDEENDMLDLAYGLTDRSRLGCQICLTKSMDNMTVRVPETVADARQSIDVGKTS | -0.0926 | -0.216 |
| MAAAGGARLLRAASAVLGGPAGRWLHHAGSRAGSSGLLRNRGPGGSAEASRSLSVSARARSSSEDKITVHFINRDGETLTTKGKVGDSLLDVVVENNLHIDGFGACEGTLACSTCHLIFEDHIYEKLDAITDEENDMLDLAYGLTDRSRLGCQICLTKSMDNMTVRVPETVADARQSIDVGKTS | -0.403 | -0.137 |
| MAAAGGARLLRAASAVLGGPAGRWLHHAGSRAGSSGLLRNRGPGGSAEASRSLSVSARARSSSEDKITVHFINRDGETLTTKGKVGDSLLDVVVENNLVIDGFGACEGTLACSTCHLIFEDHIYEKLDAITDEENDMLDLAYGLTDRSRLGCQICLTKSMDNMTVRVPETVADARQSIDVGKTS | 0.0908 | -1.19 |
| MAAAGGARLLRAASAVLGGPAGRWLHHAGSRAGSSGLLRNRGPGGSAEASRSLSVSARARSSSEDKITVHFINRDGETLTTKGKVGDSLLDVVVENNLQIDGFGACEGTLACSTCHLIFEDHIYEKLDAITDEENDMLDLAYGLTDRSRLGCQICLTKSMDNMTVRVPETVADARQSIDVGKTS | 0.0501 | -1.25 |
| MAAAGGARLLRAASAVLGGPAGRWLHHAGSRAGSSGLLRNRGPGGSAEASRSLSVSARARSSSEDKITVHFINRDGETLTTKGKVGDSLLDVVVENNLFIDGFGACEGTLACSTCHLIFEDHIYEKLDAITDEENDMLDLAYGLTDRSRLGCQICLTKSMDNMTVRVPETVADARQSIDVGKTS | -0.0227 | 0.0629 |
| MAAAGGARLLRAASAVLGGPAGRWLHHAGSRAGSSGLLRNRGPGGSAEASRSLSVSARARSSSEDKITVHFINRDGETLTTKGKVGDSLLDVVVENNLLIDGFGACEGTLACSTCHLIFEDHIYEKLDAITDEENDMLDLAYGLTDRSRLGCQICLTKSMDNMTVRVPETVADARQSIDVGKTS | -0.286 | -0.152 |
